The subject of test [1] is Blumeria graminis f. sp. hordei (Bgh). In words: Fungal development on epidermal leaf cells co-transfected with GUS reporter and HvADF3(S^6A). The conditions noted are these: BCIngridmlo5; Bgh conidia four hours after bombardment. The test is classed as cell-based, Hordeum vulgare. As to the method: Therefore, those cells were examined, which had been transfected with HvADF3 overexpression constructs.
For said experiments, epidermal leaf cells from barley were co-transfected with a plasmid for the GUS reporter together with a plasmid coding for HvADF3(S^6A), as was described in the above. Four hours after bombardment, the leaves were infected with Bgh conidia, and 22 hours after inoculation the leaves were stained with respect to GUS activity and fungal structures. FIGS. 8a and b show the fungal development in a transfected epidermal leaf cell. […] The expression of HvADF3(S^6A) corresponds to an overexpression of HvADF3. The experiments were performed in BCIngridmlo5 plants.

In test [2] the test system is actin cytoskeleton. In words: Phalloidine staining of the actin cytoskeleton in transfected epidermal leaf cells. The test is classed as cell-based, Hordeum vulgare. To be noted: BCIngridmlo5; cells labeled with dsRED. An excerpt: For this experiment, epidermal leaf cells from barley were transfected with a plasmid expressing dsRED (RFP) in order to label the transfected cells. In addition in some experiments, a constitutively active variant of HvADF3 bearing an S^6A amino acid substitution rendering the protein inaccessible for N-terminal phosphorylation was expressed. A corresponding mutant was described for ADF3 from maize (Smertenko et al., Plant J 14, 187-193).
As described in the above, said vectors were then used for transfecting the plants.
The dsRED vector (pUbi-RFP-Nos, FIG. 4) has a maize polyubiquitin promoter (pUbi), the coding gene for the red fluorescent protein (Discosoma sp. fluorescent protein FP583; RFP), and a nopaline synthase transcription termination sequence (NOS). The GenBank accession number for RFP is AF168419.
The experiments were conducted in BCIngridmlo5.

Test [3] has as its system peroxisomes. In words: Movement of GFP-labeled peroxisomes in transfected epidermal leaf cells. To be noted: epidermal leaf cells from barley; co-expression with GFP having peroxisomal targeting sequence. It counts as cell-based, Hordeum vulgare. The text has this: In order to further examine the HvADF3 function in barley, the effect of the overexpression or the silencing of HvADF3 on the mobility of peroxisomes was examined. Peroxisomes are known to be moved along actin filaments (Mathur (2002) Plant Physiology, Vol. 128, 1031-1045). Herein, barley peroxisomes were visualized by co-transformation of a plasmid expressing a variant of the Green Fluorescent Protein (GFP) with a peroxisomal targeting sequence (Mathur et al., vide supra). Herein, epidermal leaf cells from barley were transfected either only with the GFP construct or together with the already mentioned mutant of HvADF3 (S^6A). The expression of said mutant corresponds to an increase of the content and the activity of ADF3.
With the aid of the PCR method, a so-called peroxisome target sequence (PTS) was fused C-terminally to the green fluorescent protein. Said sequence consists of the three amino acids serine (S), […], and leucine (L) (Jedd, G. et al. (2002) Plant Cell Physiol 43, 384-392).
The GFP peroxisome target sequence vector (pGFPTS, FIG. 6) has a maize polyubiquitin promoter (pUbi), the coding gene for the green fluorescent protein including the peroxisome target sequence (GFPTS), and a nopaline synthase transcription terminator sequence (NOS).
The overexpression of HvADF3 was performed as described in the above. […]

Test [4] has as its system Erysiphe cichoracearum. In words: Infection of transgenic Arabidopsis plants with Erysiphe cichoracearum. The conditions noted are these: constitutive or pathogen-inducible expression. The test is classed as in vivo, Arabidopsis thaliana. As for the experimental part: (§1) The transformation is conducted according to the floral dip method (modified according to Clough and Bent, 1998). After being harvested, the seeds are sterilized with chlorine gas overnight and subsequently laid out on selection plates. The addition of antibiotics is conducted in dependency on the plant resistance marker. In case of pSUN2, BASTA is added; in case of Lo123, kanamycin is added. After sterilization, the seeds are laid out on the selection plates and are stored for stratification for two days at 4° C. in a cooling chamber. Subsequently, they are further observed under short-day conditions. After about 10 days, the first selection of the plants can be performed. Non-transgenic plants will lose color during selection, while transgenic plants having the corresponding resistance gene remain green. Those plants remaining green after the first selection are selected a second time under same conditions. Those plants still maintaining their color during the second selection can then be transferred to soil. The plants are selfed and the resulting T2 seed populations are subjected to phytopathological analysis. […]
The biotrophic mildew fungus is cultivated on Arabidopsis thaliana plants. […] These symptoms are quantified and tested for significance.

Test [5] has as its system Peronospora parasitica. In words: Infection of transgenic Arabidopsis plants with Peronospora parasitica. It counts as in vivo, Arabidopsis thaliana. The conditions noted are these: constitutive or pathogen-inducible expression. As to the method: as §1
5 to 8-week-old plants are sprayed with a conidia spore suspension (about 10^6 spores/ml). […] These symptoms are quantified and tested for significance.

B1: HvADF3 (S^6A): Constitutively active variant of barley ADF3 (SEQ ID No. 2) with S6A substitution, overexpressed from vector pHvADF3-CA (protein)
chain: MANASAGAGIHDDCKLRFVELKSKRMHRFITYRLENQKEVIVDQTGQRDATYEDFTKTLPENDCRFAVFDFDFTTPEDVPKSRIFYIFWSPDTAKVRSKMTYASNEKFKRTLDGIQIEMQATDPSEISLDVIKERAH
modifications: Hordeum vulgare
Take B1: the “fungal development in transfected cells” value in test [1] is on record as “the fungus can only form very short hyphae”. For the same molecule, in test [2], the “phalloidine-stainable actin fibers in bombarded cells” value is reported as “stainable actin fibers could only be detected in the neighboring cells, but not in the bombarded cells”. Moreover, in test [3], the peroxisomal movement result is given as “considerably reduced”.

B2: AtADF3: ADF3 from Arabidopsis thaliana (SEQ ID No. 11), expressed constitutively (pSUN2) or pathogen-inducibly (Lo123) in transgenic Arabidopsis plants (protein, listed as Arabidopsis thaliana)
chain: MANAASGMAVHDDCKLKFMELKTKRTHRFIIYKIEELQKQVIVEKIGEPGQTHEDLAASLPADECRYAIFDFDFVSSEGVPRSRIFFVAWSPDTARVRSKMIYASSKDRFKRELDGIQVELQATDPTEMDLDVFKSRAN
For the molecule B2, the “resistance to Erysiphe cichoracearum as compared to non-transgenic wild-type plants” value in test [4] was “significantly increased resistance”. In test [5], the “resistance to Peronospora parasitica as compared to non-transgenic wild-type plants” value was “significantly increased resistance”.

Values taken from US7928289B2, “Method for production of transgenic plants with increased pathogenic resistance by altering the content and/or activity of actin-depolymerising factors” (BASF Plant Science GmbH, priority 2004, dated 2011).
